Measurements taken from the supplement of paper PMC9112550, “Optimization of the antimicrobial peptide Bac7 by deep mutational scanning” (BMC Biology, 2022).

These sequences were tested on Escherichia coli TOP10 (assay: shrunken log2 fold change of peptide-encoding DNA abundance (4.5 h post-induction vs induction); higher = less antimicrobial activity (less host growth inhibition)). Settings: time post-induction: 4.5 h; library: site-saturation at positions 5, 18, 19, 20.
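Also: peptides expressed intracellularly from a pBAD plasmid library in pooled LB shake-flask culture, induced with 0.3% L-arabinose, DNA abundance read by NGS, three biological replicates, DESeq2 with apeglm shrinkage.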

Row | Sequence | shrunken log2 fold change
1 | RRIRDRPPRLPRPRPRPWMQPRP | -0.0999
2 | RRIRDRPPRLPRPRPRPWPKPRP | -0.149
3 | RRIRDRPPRLPRPRPRPWPMPRP | -0.0379
4 | RRIRDRPPRLPRPRPRPWQIPRP | 0.0319
5 | RRIRDRPPRLPRPRPRPWTQPRP | -0.124
6 | RRIRDRPPRLPRPRPRPWVLPRP | -0.00957
7 | RRIRDRPPRLPRPRPRPWWDPRP | 0.083
8 | RRIRDRPPRLPRPRPRPYAPPRP | -0.477
9 | RRIRDRPPRLPRPRPRPYDQPRP | -0.473
10 | RRIRDRPPRLPRPRPRPYFCPRP | -0.177
11 | RRIRDRPPRLPRPRPRPYFQPRP | -0.236
12 | RRIRDRPPRLPRPRPRPYGTPRP | -0.234
13 | RRIRDRPPRLPRPRPRPYHCPRP | -0.00783
14 | RRIRDRPPRLPRPRPRPYIHPRP | -0.117
15 | RRIRDRPPRLPRPRPRPYKFPRP | -0.223
16 | RRIRDRPPRLPRPRPRPYLNPRP | -0.272
17 | RRIRDRPPRLPRPRPRPYMQPRP | -0.0171
18 | RRIRDRPPRLPRPRPRPYNNPRP | -0.489
19 | RRIRDRPPRLPRPRPRPYNTPRP | -0.476
20 | RRIRDRPPRLPRPRPRPYQPPRP | -0.0769
21 | RRIRDRPPRLPRPRPRPYTIPRP | -0.0747
22 | RRIRDRPPRLPRPRPRPYTKPRP | -1.06
23 | RRIRDRPPRLPRPRPRPYTPPRP | -0.95
24 | RRIRDRPPRLPRPRPRPYTYPRP | 0.0218
25 | RRIRDRPPRLPRPRPRPYVAPRP | -0.0638

Row | Sequence | shrunken log2 fold change
26 | RRIRDRPPRLPRPRPRPYWWPRP | 0.021
27 | RRIRDRPPRLPRPRPRPYYLPRP | -0.134
28 | RRIRERPPRLPRPRPRPADEPRP | -0.032
29 | RRIRERPPRLPRPRPRPAEIPRP | -0.207
30 | RRIRERPPRLPRPRPRPAGTPRP | 0.346
31 | RRIRERPPRLPRPRPRPAHCPRP | 0.0518
32 | RRIRERPPRLPRPRPRPAIFPRP | -0.12
33 | RRIRERPPRLPRPRPRPAISPRP | -0.691
34 | RRIRERPPRLPRPRPRPAKSPRP | 0.0676
35 | RRIRERPPRLPRPRPRPAMFPRP | -1.09
36 | RRIRERPPRLPRPRPRPANMPRP | -0.19
37 | RRIRERPPRLPRPRPRPAPVPRP | 0.055
38 | RRIRERPPRLPRPRPRPAQRPRP | 0.324
39 | RRIRERPPRLPRPRPRPATRPRP | 0.102
40 | RRIRERPPRLPRPRPRPAWRPRP | 0.532
41 | RRIRERPPRLPRPRPRPAYPPRP | -0.403
42 | RRIRERPPRLPRPRPRPAYTPRP | -0.284
43 | RRIRERPPRLPRPRPRPCADPRP | 0.0245
44 | RRIRERPPRLPRPRPRPCANPRP | -0.158
45 | RRIRERPPRLPRPRPRPCCSPRP | -0.52
46 | RRIRERPPRLPRPRPRPCFQPRP | -0.25
47 | RRIRERPPRLPRPRPRPCFWPRP | -0.176
48 | RRIRERPPRLPRPRPRPCIAPRP | -0.753
49 | RRIRERPPRLPRPRPRPCPKPRP | -0.39
50 | RRIRERPPRLPRPRPRPCQIPRP | -0.193

Row | Sequence | shrunken log2 fold change
51 | RRIRERPPRLPRPRPRPCRIPRP | -0.0965
52 | RRIRERPPRLPRPRPRPCRMPRP | -0.363
53 | RRIRERPPRLPRPRPRPCSAPRP | -0.0881
54 | RRIRERPPRLPRPRPRPCSCPRP | -0.00783
55 | RRIRERPPRLPRPRPRPCSEPRP | 0.0641
56 | RRIRERPPRLPRPRPRPCTHPRP | -1.36
57 | RRIRERPPRLPRPRPRPCTSPRP | -0.0275
58 | RRIRERPPRLPRPRPRPCVGPRP | -0.278
59 | RRIRERPPRLPRPRPRPCWAPRP | 0.00771
60 | RRIRERPPRLPRPRPRPCWSPRP | 0.0767
61 | RRIRERPPRLPRPRPRPCYEPRP | -0.0528
62 | RRIRERPPRLPRPRPRPDANPRP | -0.103
63 | RRIRERPPRLPRPRPRPDDPPRP | -0.157
64 | RRIRERPPRLPRPRPRPDEDPRP | -0.209
65 | RRIRERPPRLPRPRPRPDFKPRP | 0.0659
66 | RRIRERPPRLPRPRPRPDGRPRP | -0.03
67 | RRIRERPPRLPRPRPRPDHHPRP | -0.478
68 | RRIRERPPRLPRPRPRPDHLPRP | -0.223
69 | RRIRERPPRLPRPRPRPDIVPRP | -0.158
70 | RRIRERPPRLPRPRPRPDMDPRP | 0.0527
71 | RRIRERPPRLPRPRPRPDNIPRP | -0.745
72 | RRIRERPPRLPRPRPRPDPIPRP | -0.224
73 | RRIRERPPRLPRPRPRPDPYPRP | -0.0291
74 | RRIRERPPRLPRPRPRPDQGPRP | 0.0476
75 | RRIRERPPRLPRPRPRPDRAPRP | 0.00194

Row | Sequence | shrunken log2 fold change
76 | RRIRERPPRLPRPRPRPDRCPRP | 0.0731
77 | RRIRERPPRLPRPRPRPDSHPRP | -0.6
78 | RRIRERPPRLPRPRPRPDTDPRP | 0.0402
79 | RRIRERPPRLPRPRPRPDTEPRP | -0.0215
80 | RRIRERPPRLPRPRPRPDVGPRP | -0.59
81 | RRIRERPPRLPRPRPRPDWAPRP | 0.0306
82 | RRIRERPPRLPRPRPRPEAGPRP | 0.0425
83 | RRIRERPPRLPRPRPRPEATPRP | 0.18
84 | RRIRERPPRLPRPRPRPECEPRP | 0.318
85 | RRIRERPPRLPRPRPRPEDHPRP | -0.111
86 | RRIRERPPRLPRPRPRPEDLPRP | 0.0648
87 | RRIRERPPRLPRPRPRPEEVPRP | -0.00101
88 | RRIRERPPRLPRPRPRPEFEPRP | -0.159
89 | RRIRERPPRLPRPRPRPEFPPRP | -0.00557
90 | RRIRERPPRLPRPRPRPEFRPRP | -0.274
91 | RRIRERPPRLPRPRPRPEFWPRP | 0.159
92 | RRIRERPPRLPRPRPRPEGDPRP | 0.0441
93 | RRIRERPPRLPRPRPRPEGNPRP | 0.00934
94 | RRIRERPPRLPRPRPRPEGSPRP | 0.0172
95 | RRIRERPPRLPRPRPRPEGYPRP | -0.00062
96 | RRIRERPPRLPRPRPRPEHFPRP | -0.00973
97 | RRIRERPPRLPRPRPRPELRPRP | 0.0526
98 | RRIRERPPRLPRPRPRPEMYPRP | -0.00136
99 | RRIRERPPRLPRPRPRPENAPRP | -0.00683
100 | RRIRERPPRLPRPRPRPENLPRP | -0.226

Row | Sequence | shrunken log2 fold change
101 | RRIRERPPRLPRPRPRPENPPRP | 0.142
102 | RRIRERPPRLPRPRPRPEQIPRP | -0.207
103 | RRIRERPPRLPRPRPRPEREPRP | 0.414
104 | RRIRERPPRLPRPRPRPERYPRP | -0.162
105 | RRIRERPPRLPRPRPRPESVPRP | -0.316
106 | RRIRERPPRLPRPRPRPETEPRP | 0.192
107 | RRIRERPPRLPRPRPRPETGPRP | -0.373
108 | RRIRERPPRLPRPRPRPETNPRP | -0.000368
109 | RRIRERPPRLPRPRPRPEYSPRP | -0.422
110 | RRIRERPPRLPRPRPRPEYVPRP | -0.0151
111 | RRIRERPPRLPRPRPRPFALPRP | -0.256
112 | RRIRERPPRLPRPRPRPFAQPRP | -0.145
113 | RRIRERPPRLPRPRPRPFCNPRP | -0.366
114 | RRIRERPPRLPRPRPRPFCVPRP | -0.026
115 | RRIRERPPRLPRPRPRPFDCPRP | -0.0657
116 | RRIRERPPRLPRPRPRPFDIPRP | -0.103
117 | RRIRERPPRLPRPRPRPFEEPRP | -0.217
118 | RRIRERPPRLPRPRPRPFEGPRP | -0.105
119 | RRIRERPPRLPRPRPRPFFFPRP | 0.0253
120 | RRIRERPPRLPRPRPRPFFYPRP | -0.258
121 | RRIRERPPRLPRPRPRPFGRPRP | -0.0419
122 | RRIRERPPRLPRPRPRPFGVPRP | 0.00331
123 | RRIRERPPRLPRPRPRPFMFPRP | -0.531
124 | RRIRERPPRLPRPRPRPFMGPRP | -0.0195
125 | RRIRERPPRLPRPRPRPFNNPRP | -0.39

Row | Sequence | shrunken log2 fold change
126 | RRIRERPPRLPRPRPRPFPQPRP | 2.37
127 | RRIRERPPRLPRPRPRPFQKPRP | -0.178
128 | RRIRERPPRLPRPRPRPFRLPRP | -0.51
129 | RRIRERPPRLPRPRPRPFRMPRP | -0.3
130 | RRIRERPPRLPRPRPRPFRVPRP | -0.0333
131 | RRIRERPPRLPRPRPRPFTRPRP | -0.0106
132 | RRIRERPPRLPRPRPRPFVTPRP | -0.865
133 | RRIRERPPRLPRPRPRPFWLPRP | 0.463
134 | RRIRERPPRLPRPRPRPFWMPRP | -0.262
135 | RRIRERPPRLPRPRPRPGAIPRP | -0.187
136 | RRIRERPPRLPRPRPRPGATPRP | 0.148
137 | RRIRERPPRLPRPRPRPGCPPRP | 0.0137
138 | RRIRERPPRLPRPRPRPGDEPRP | 0.115
139 | RRIRERPPRLPRPRPRPGDLPRP | -0.0898
140 | RRIRERPPRLPRPRPRPGGNPRP | -0.442
141 | RRIRERPPRLPRPRPRPGHGPRP | -0.281
142 | RRIRERPPRLPRPRPRPGHPPRP | 0.143
143 | RRIRERPPRLPRPRPRPGIAPRP | -0.183
144 | RRIRERPPRLPRPRPRPGIGPRP | -0.0295
145 | RRIRERPPRLPRPRPRPGKLPRP | 0.162
146 | RRIRERPPRLPRPRPRPGLCPRP | 0.00687
147 | RRIRERPPRLPRPRPRPGNTPRP | -0.089
148 | RRIRERPPRLPRPRPRPGQYPRP | -0.113
149 | RRIRERPPRLPRPRPRPGTPPRP | 0.0316
150 | RRIRERPPRLPRPRPRPGVDPRP | 0.114
